This is an account of results in PMC9071424, “Microarray screening reveals two non-conventional SUMO-binding modules linked to DNA repair by non-homologous end-joining” (Nucleic Acids Research, 2022).

The target in the experiment is T1, XLF-6×His (human, UniProt Q9H9Q4 1-299).
T1 construct: XLF (NHEJ1), human, amplified from pGEX2TKP-XLF and subcloned into pHAT5; source: E. coli BL21-CodonPlus (DE3)-RIL, purified (HP His-trap, HiTrap Q HP)
As to the kind of experiment: BLI; XLF binding of XRCC4 1–164 and its mutants. The note with it: both partners purified. On the technique in general: BLI is a label-free optical method that tracks binding on a fibre tip over time.

T1 sequence (Q9H9Q4 whole entry): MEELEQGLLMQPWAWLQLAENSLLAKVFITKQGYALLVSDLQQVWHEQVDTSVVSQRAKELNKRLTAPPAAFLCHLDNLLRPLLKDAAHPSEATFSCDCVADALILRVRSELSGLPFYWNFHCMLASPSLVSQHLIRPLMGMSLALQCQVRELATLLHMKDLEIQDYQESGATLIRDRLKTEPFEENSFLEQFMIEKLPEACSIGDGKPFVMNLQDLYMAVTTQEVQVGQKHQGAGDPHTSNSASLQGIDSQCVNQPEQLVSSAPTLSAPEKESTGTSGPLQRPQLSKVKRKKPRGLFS

B1: 6×His-XRCC4^1–164 (C-to-A) (domain or fragment, human, UniProt Q13426 1-164, looked up)
chain: MERKISRIHLVSEPSITHFLQVSWEKTLESGFVITLTDGHSAWTGTVSESEISQEADDMAMEKGKYVGELRKALLSGAGPADVYTFNFSKESAYFFFEKNLKDVSFRLGSFNLEKVENPAEVIRELIAYALDTIAENQAKNEHLQKENERLLRDWNDVQGRFEK
modifications: 15N-labelled where it was the observed protein in NMR
notes: pET-28a vector; also called XRCC4 head domain; not shown: 6×His, N-terminal, kept
On to B1, for which the binding result is “binds”.
